According to patent US20250320480A1, “Immunoglobulin Cleaving Enzyme” (priority 2021, published 2025):
Entries after “also recorded” stand apart in the source; their conditions may differ.

Assays:
Format in all cases: biochemical
human IgA = assay: Immunoglobulin specificity on SDS-PAGE: human IgA; settings: 37° C.
Description: FIG. 3. Specificity of IdeSork2.0. IdeSork2.0 was mixed with different antibodies and incubated o/n at 37° C. before analysis on SDS-PAGE. The enzyme itself is noted with an arrow. […] Mouse IgG1, mouse IgG2b and human IgA were not affected by IdeSork2.0.
(§1) Various antibodies and antibody based therapeutics were incubated with Xork, IdeS, or IdeZ (1:40 ratio) for 1 hour at 37° C. in PBS, with substrate concentrations ranging between 2-5 mg/mL, before being analyzed on SDS-PAGE. For kinetic studies, a substrate level of 2-200 μM IVIG was used during 10 min at 37° C. before being analyzed on a UHPLC system.

horse IgG = assay: Immunoglobulin specificity on SDS-PAGE: horse IgG; settings: o/n at 37° C.
Description: (§2) FIG. 11. Specificity of IdeSork2.0. IdeSork2.0 was mixed with different antibodies and incubated o/n at 37° C. before analysis on SDS-PAGE.
as §1

guinea pig IgG = assay: Immunoglobulin specificity on SDS-PAGE: guinea pig IgG; settings: o/n at 37° C.
Description: as §2, §1

sheep IgG = assay: Immunoglobulin specificity on SDS-PAGE: sheep IgG; settings: o/n at 37° C.
Description: as §2, §1

pig IgG = assay: Immunoglobulin specificity on SDS-PAGE: pig IgG; settings: o/n at 37° C.
Description: as §2, §1

IgG = assay: Time-dose assays (enzyme:substrate ratio, time)
Description: FIG. 8. IdeSork2.0 enzyme: substrate ratio. The impact of enzyme and substrate concentration for the reaction speed was investigated using a Box-Behnken experimental setting, also analyzing the impact of time for the reaction speed. Output was measured as percentage hydrolysis of IgG (top left figure), as well as quantity hydrolyzed IgG per unit enzyme (all other figures).
FIG. 9. IdeSork2.0 enzyme: substrate activity over time. To verify the impact of modifying the enzyme: substrate ratio, an experiment with varying amounts of substrate (5-40 μg) to a set amount of enzyme (1 μg) was conducted over time (30, 60, and 120 min).
To investigate the impact of substrate and enzyme concentration, as well as time needed to complete (>95% hydrolysis) a reaction, a new Box-Behnken assay was designed (FIG. 8). The data was supported by traditional assays, with similar results (FIG. 9). IdeSORK2.0 quite rapidly hydrolyzes the vast majority of the material, but needs a longer time to finish hydrolysis of the last percentages of intact IgG, similar to other immunoglobulin proteases. A ratio of 1:40 hydrolyzes >95% of IgG in 30-60 minutes.
To better understand the optimal conditions needed for the enzyme to exert its activity, a Box-Behnken design was employed for the experiment. Addition of NaCl (0-400 mM), pH (5.5-8.5), [enzyme], [substrate], time, and temperature were parameters investigated. […]

IgG1 = assay: Comparison to other IgG proteases: IgG1; settings: SDS-PAGE
Description: (§3) FIG. 10. IdeSork2.0 is having a similar activity compared to IdeS and IdeZ. To investigate if IdeSork2.0 is hydrolyzing IgG in a similar way as IdeS and IdeZ they were all incubated against IgG1 and IgG2 and analyzed on SDS-PAGE. The cleavage patterns look identical, with both IdeSork2.0 and IdeS having less activity towards IgG2.
(§4) To further look into the activity of IdeSORK2.0, its activity was compared with IdeS and IdeZ against both IgG1 and IgG2.

IgG2 = assay: Comparison to other IgG proteases: IgG2; settings: SDS-PAGE
Description: as §3, §4

IgG in human serum = assay: Activity of IgG hydrolases in human serum; settings: serum (100%), E:S 1:40, 0-4 hours at 37° C., non-reduced SDS-PAGE
Description: FIG. 15. Activity of IgG hydrolases in human serum. Serum (100%) was spiked with IgG hydrolases and activity was analyzed over time using non-reduced SDS-PAGE.
For serum activity assays, an E: S ratio of 1:40 (assuming 10 mg/mL IgG in serum) was used, incubating 0-4 hours at 37° C. before analysis on a non-reduced SDS-PAGE. All enzymes were supplied by Genovis AB.

B1: IdeSORK2.0: SEQ ID NO: 2 (N terminal 312 amino acids of IdeSORK) with added N terminal methionine and C-terminal His6; 319 amino acids (protein)
chain: MSKRKLLKKIEKKDTSSVLTQKKQTKTLWADGVQVDDKDFKPSTENFGTNYLAAEYGIGKGYYDINKKFDGTDDDLCSGVVAANQLHWWLDRNKDYIEKYRQQSKDNGVTIGNTDIFELNKLHDEDQSNFFDFIKKSFGNKFLQPERLLNMYINGYGYLTSQDKAKTSQPSPSKLNFFQKVFKNNLLTDKTPINDIDEFSSQTKNALQNHKVLAVSFASIKNRGLGHVVTVWGADFDENGKVVALYVTDSDDRSKNIGNAKLGMKKLRIEVSAQDSSTIKLTGFEDKNSGGSLRHLYSLSTGEQIWKKYFEETHHHHHH
modifications: (IdeSORK2.0) Protein of SEQ ID NO 2 engineered to include an additional N terminal methionine and a C-terminal protein purification tag - His6
Human IgA
  Activity towards human IgA: not active
Human IgA; listed as IdeSork2.0
  Activity towards human IgA: not affected
Horse IgG
  Activity on horse IgG: showed activity
Guinea pig IgG
  Activity on guinea pig IgG: showed activity
Sheep IgG
  Activity on sheep IgG: only showed activity against horse and guinea pig IgG; also recorded: no visible effect
Pig IgG
  Activity on pig (porcine) IgG: only showed activity against horse and guinea pig IgG; also recorded: no visible effect
IgG; 5-40 μg substrate to 1 μg enzyme, 30, 60 and 120 min
  Hydrolysis of IgG over time at varying substrate amounts: Almost all IgG is hydrolyzed within 30 minutes
IgG; ratio 1:40, 30-60 minutes
  Hydrolysis of IgG: > 95%
IgG1
  Hydrolysis of IgG1: able to hydrolyze
IgG2
  Hydrolysis of IgG2: able to hydrolyze
IgG2; listed as IdeSork2.0
  Hydrolysis of IgG2: less activity
IgG in human serum
  Immunoglobulin cleavage activity in the presence of human serum: demonstrated immunoglobulin cleavage activity
